Reference: publication PMC6453562

What was measured:
Test in all cases: native gel or EMSA
[1] = target: BG505 SOSIP.664-His trimer (HIV-1 (BG505)) (UniProt Q2N0S6)
[2] = target: BG505 SOSIP.664 trimer (HIV-1 (BG505)) (UniProt Q2N0S6)
[3] = target: B41 SOSIP.v4.1-His trimer (HIV-1 (B41))

BG505 SOSIP.664-His trimer (from UniProt Q2N0S6 1-860; Q2N0S6 1-860) (complex)
stoichiometry N [1]: 3

BG505 SOSIP.664 trimer (from UniProt Q2N0S6 1-860; Q2N0S6 1-860) (complex)
stoichiometry N [2]: 3

B41 SOSIP.v4.1-His trimer (complex)
stoichiometry N [3]: 3
